{
  "source": "paper PMC9876287",
  "about": "“Characterization of a new CCCTC-binding factor binding site as a dual regulator of Epstein-Barr virus latent infection”",
  "binders": {"B1": {"name": "Wt S13 49-mer (dsDNA)", "DNA 1": "TTTGTTAATCTTTAGTGGGAACTAGTGGGAGTGCTGTGCCTCGGGTACC", "DNA 2": "GGTACCCGAGGCACAGCACTCCCACTAGTTCCCACTAAAGATTAACAAA"}},
  "target": "T1, CTCF (UniProt P49711 1-727)",
  "T1 sequence": "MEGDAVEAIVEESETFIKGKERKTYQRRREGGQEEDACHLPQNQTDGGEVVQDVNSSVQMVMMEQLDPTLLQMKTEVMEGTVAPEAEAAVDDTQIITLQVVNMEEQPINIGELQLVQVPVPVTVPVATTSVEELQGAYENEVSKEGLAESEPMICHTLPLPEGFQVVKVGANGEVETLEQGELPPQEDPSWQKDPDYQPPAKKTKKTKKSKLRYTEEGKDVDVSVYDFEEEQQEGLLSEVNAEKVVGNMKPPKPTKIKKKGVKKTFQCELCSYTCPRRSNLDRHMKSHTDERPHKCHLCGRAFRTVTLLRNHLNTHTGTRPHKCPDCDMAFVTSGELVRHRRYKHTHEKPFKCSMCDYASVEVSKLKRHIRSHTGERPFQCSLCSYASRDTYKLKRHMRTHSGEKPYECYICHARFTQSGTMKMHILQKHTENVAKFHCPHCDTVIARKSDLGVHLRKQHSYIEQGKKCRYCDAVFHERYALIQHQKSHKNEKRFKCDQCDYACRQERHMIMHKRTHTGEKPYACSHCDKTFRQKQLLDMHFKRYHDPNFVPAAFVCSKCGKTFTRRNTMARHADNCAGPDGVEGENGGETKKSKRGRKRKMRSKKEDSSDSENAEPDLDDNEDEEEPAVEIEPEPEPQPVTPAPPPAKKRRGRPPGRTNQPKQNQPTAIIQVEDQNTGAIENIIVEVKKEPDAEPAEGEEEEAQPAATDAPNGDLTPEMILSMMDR",
  "experiment": "MST; sonicated salmon sperm DNA competitor (2000 ng); MST: 125 nM DNA, 0-12.5 uM protein, 1X EMSA buffer (from 4X: 100 mM KCl, 20 mM HEPES pH 8.0, 0.2 mM EDTA, 20% glycerol) with 1 mM DTT (fresh), salmon sperm DNA; 60 min on ice",
  "conditions": "protein: recombinant; tags: His; label: 5' FAM (5-carboxyfluorescein) on forward strand; blunt",
  "data": [
    {"binder": "B1", "values": [
      {"measurement": "Kd", "result": "4.8 ± 2.3", "unit": "µM"}
    ]}
  ]
}
